Data published in patent publication US20170145090A1.

Molecular target: Human OSM (in-house, OSMN1-1) (human) (UniProt P13725)
Test: cell-based or functional assay

Sequence of Human OSM (in-house, OSMN1-1) (human) (P13725 26-221 limits assumed): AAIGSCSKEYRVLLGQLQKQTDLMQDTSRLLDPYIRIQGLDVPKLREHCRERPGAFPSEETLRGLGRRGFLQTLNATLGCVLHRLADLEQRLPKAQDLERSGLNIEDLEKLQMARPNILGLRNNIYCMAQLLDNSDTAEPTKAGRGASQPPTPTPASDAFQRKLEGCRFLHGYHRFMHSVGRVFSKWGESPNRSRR

pSTAT3 inhibition EC50 (ng/ml), A375 cells, 5 ng/ml hOSM: 72.1 ng/ml
Substance: MAB295 (R&D Systems) (antibody)
